Results on two molecules are retold here after publication PMC3326313.

In data set [1] the target is T1, GB1-His6-SRSF2 RRM wild type (Homo sapiens, UniProt Q01130 9-101).
T1 sequence: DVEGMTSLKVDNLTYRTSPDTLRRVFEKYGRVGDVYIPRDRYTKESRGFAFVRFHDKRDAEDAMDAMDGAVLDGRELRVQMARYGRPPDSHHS
In words: ITC. A general note: Isothermal titration calorimetry measures the heat released or taken up as one component is titrated into another.

In data set [2] the target is T1, GB1-His6-SRSF2 RRM wild type. In words: NMR chemical shift titration.

What is called Kd is the free concentration of one partner at which half of the binding sites on the other are occupied at equilibrium, for simple one-to-one binding. Molecule AGCAGAGUA (ssRNA) [9-mer AGCAGAGUA] returned a Kd in data set [1] of 0.061 ± 0.001 µM.

Regarding GAGUA (ssRNA) [5-mer GAGUA], the Kd in data set [2] was around 500 µM.
